Test results from patent US20250333486A1, “Anti-HSP90 alpha antibody and uses thereof” (NATIONAL HEALTH RESEARCH INSTITUTES, priority 2021, published 2025).

Test: Solubility of antibody
Assay type: physicochemical

B1: HH01: humanized anti-HSP90α IgG1 antibody, mutant of Clone-2-chimera; VH SEQ ID NO: 12, VL SEQ ID NO: 17 (antibody, V domains shown)
VH: EVQLVESGGGLVQPGGSLRLSCAASGFTFKTYAMNWVRQAPGQGLEWVARIRSKSRNYATYYADSVKDRFTISRDDSKNQFYLQMNNLRTEDTAVYYCVVGGSGFDYWGQGTTLTVSS
VL: DVVMTQTPLSLPVSLGDQASISCRSSQSIVHSNGNTYLEWYLQKPGQSPQLLIYKVSNRFSGVPDRFSGSGSGTDFTLTISSVEAEDLGVYYCFQGSHVPWTFGGGTKLEIK
modifications: Heavy chain variable region; Light chain variable region
Q: What does the source list for B1?
A: water solubility: quite water-soluble; solubility in PBS (PBS): > 10000 µg/mL
